Reference: patent publication US20230340055A1 (published 2023)

Molecular target: T1, IL-2-Rα/β/γ on the murine CTLL-2 T lymphocyte cell line (murine, UniProt P01590 22-268; P16297 27-539; P34902 23-369)
T1 sequence (looked up) 1: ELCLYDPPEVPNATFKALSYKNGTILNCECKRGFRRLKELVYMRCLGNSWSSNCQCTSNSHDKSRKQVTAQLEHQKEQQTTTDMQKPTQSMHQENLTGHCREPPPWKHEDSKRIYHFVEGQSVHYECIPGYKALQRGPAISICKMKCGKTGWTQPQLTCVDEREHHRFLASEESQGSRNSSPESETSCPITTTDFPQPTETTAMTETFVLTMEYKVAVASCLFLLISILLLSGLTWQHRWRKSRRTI
T1 sequence (looked up) 2: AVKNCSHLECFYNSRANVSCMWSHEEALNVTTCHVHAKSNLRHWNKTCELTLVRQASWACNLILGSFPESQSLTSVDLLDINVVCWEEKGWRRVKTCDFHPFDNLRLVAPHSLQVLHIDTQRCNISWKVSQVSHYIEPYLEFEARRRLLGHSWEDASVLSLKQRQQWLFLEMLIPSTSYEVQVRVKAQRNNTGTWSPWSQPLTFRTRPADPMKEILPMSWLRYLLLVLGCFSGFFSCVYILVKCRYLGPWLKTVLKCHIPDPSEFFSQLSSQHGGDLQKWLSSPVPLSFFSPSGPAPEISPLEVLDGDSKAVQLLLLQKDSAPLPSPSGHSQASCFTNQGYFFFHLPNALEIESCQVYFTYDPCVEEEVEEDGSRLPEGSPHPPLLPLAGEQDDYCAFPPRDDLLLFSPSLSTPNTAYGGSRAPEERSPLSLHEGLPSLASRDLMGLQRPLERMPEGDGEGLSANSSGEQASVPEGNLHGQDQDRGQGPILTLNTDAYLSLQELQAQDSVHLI
T1 sequence (looked up) 3: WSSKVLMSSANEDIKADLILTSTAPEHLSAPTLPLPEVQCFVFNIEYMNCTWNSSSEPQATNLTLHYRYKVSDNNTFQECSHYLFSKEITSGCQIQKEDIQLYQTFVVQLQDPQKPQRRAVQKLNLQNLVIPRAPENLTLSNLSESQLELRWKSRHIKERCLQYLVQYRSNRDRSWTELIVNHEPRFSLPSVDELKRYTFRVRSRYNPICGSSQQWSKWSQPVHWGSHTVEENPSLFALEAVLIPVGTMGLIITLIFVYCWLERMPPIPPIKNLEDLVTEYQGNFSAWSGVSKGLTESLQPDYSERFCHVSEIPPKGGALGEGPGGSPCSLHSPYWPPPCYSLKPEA
Assay: cell-based or functional assay

B1: protein 6 (ligand)
chain: APTSSSTKKTQLQLEHLLLDLQMILNGINNYKNPKLTFGNSTKFYMPKKATELKHLQCLEEELKPLEEVLNLAQSKNFHLRPRDLISNINVIVLELKGSETTFMCEYADETATIVEFLNRWITFSQSIISTLT
modifications: glycosylated (same sequence with the N-glycosylation motif FGNST as protein 1f); glycan sites not analysed separately for protein 6
  ratio of Ratio protein 6 to Ratio protein 5a (EC50 CTLL-2 cells / EC50 HH cells): > 250
